Experiment: yeast display, Sf9 membrane polyspecificity reagent, FACS + sequencing; frameworks hold sequencing errors
Outline: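 Nanobodies came from a synthetic yeast display library in Saccharomyces cerevisiae BJ5465, induced with galactose for 36–48 hours and stained for 1 hour at 4 °C with 10% biotinylated, detergent-solubilized Sf9 membrane reagent. Cells were enriched on streptavidin microbeads and then FACS-sorted, with low and high (top ~1%) gates set on anti-HA fluorescence for expression and streptavidin fluorescence for reagent binding. Each polyreactivity label reflects the gate a clone came from. Genes were amplified by colony PCR, sequenced by MiSeq 2 × 250 and filtered by CDR length.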

| Sequence | polyreactivity (PSR sort gate) |
| --- | --- |
| QVQLVESGGGLVQAGGSLRLSCAASGFTFKLNAMGWYRPAPGKERELVAAISWGGGTTYYADSVKGRFTISRDNAKNTVYLQMNSLKPEDTAVYYCAADGTGTYDYWGQGTQVTVSS | low polyreactivity |
| QVQLVESCGGLVQAGGSLRLSCAASGRIFSYNPMGWYRQAPGKERELVATITSGDSTNYADSVKGRFTISRDNSKNSVYLQMNSLKQEDTAVYYCATDIYGLPVDYWGQGTQVSVSS | low polyreactivity |
| QGQLVESGGGLVQAGGSLRLSCAASGSIFYWYAMGWYRQAPGKERELVAVISTGTSTKYADSVKGRFTISRDNAKNTVYLQMNSLKPEDTAVYYCNADPVGPKYDYWGQGTQVTVSS | low polyreactivity |
| QVQLVESGGGLVQAGGSLRLSCAASGSIVAYNAMAWYRQAPGKEWELVAAINSGSLTYYADSVTGRFTISRDNAKYTVYLPMNSLKPEDTAVYYCAAEWERWYYRYDYWGQGTQVTVSS | high polyreactivity |
| QVHLVESGGGLVQAGGSLRLSCAASGSIFWANAMGWYSQAPGKERELVAAINFRATITYYADSVKGRFTISRDIAKNTFYLQMISLKPEDTAVYYCAGDSYECWYDYWGQGTEVTVSS | high polyreactivity |
| QVQLVESGGGLVQAGGSLRISCAASGSNSNANAMGWYRQAPGKQREFVADISRSRGRTYYADSVKGRFTISRDNAKYTVYLQMNSLKPEVTAVYYCAAGGFGAGNNYWGQGTQVTVSS | high polyreactivity |
| QVQLVESGGGLDQAGGRLRLSCAASGIIFPIYAMRLYRQAPGKERELVAGISTGGGGTYYADSVKGRFTISRDNAKNTVYLQMNSLKPEDSAVYYCSTSGPLYYSRNFDYWGQGTQVTVSS | low polyreactivity |
| QVQLVESGGGLVQAGGSLRLSCAASGFIFYFYAMGWYRQATGKEMELVAAISDGVSTYYADSVKGRFTISRDNAKNTVYLQMNCLKPEDTAVYYCAVSRGDDPEFDYWGQGTQVTVSS | low polyreactivity |
| QVQLVESGGGLVQAGGSLRLSCAASGSICDRNAMGWYRQAPGKERELVANITWSGVSTYYADSVKGRFTMSRDNAKNTVYLQMNSLKPDDTAVYYCNADYSYRHWYDPGQYGQAMGYWGQGTQVTVSS | low polyreactivity |
| QVQLVESGGGLVQAGGSLRLSCAASGFTFWRNAMGLYRQAPGKERELDAAISWRGGSTYYADCVKGRFTISRDNAKNTVYFQMNSLKPEDTAVYYCNVVYFRYYSGEFDYWGQGTQVTVSS | high polyreactivity |
| QVQLVESGGGLVQAGGSLRLSCDASGIIFPYYAMGWYRQAPGKERELVAGISSSGGITYADSVKGRFTISRDNAKNTVYLQMNSLNPEDTAVYYCNAEYQWLEYDYWGQGTQVTVSS | low polyreactivity |
| QVQLVESGGGLVQAGGSLRLSCAATGFTFSLYGMGWYRQAPGKERELVAAIRSGGSTNYADSVKGRFTISRDNAKNTVYLQMNSLKPVDTAVYYCATDIHSVHNNRDKHDYDYWGQGTQVTVSS | low polyreactivity |
| QVQLVESGGGLVQAGGSLRLSCAASGSIFGFYAMGWYRQAPGKERELVAAISDSGDSTYYADSVKGRFTISRDNAKNTVYLQMNSLKPEDTAVYYCATDGRSNYYWGDYWGQGTQVTVSS | low polyreactivity |
| QVQLVESGGGLVQAGGSLRLSCAASGSTFVYNTMGWYRQAPGKERELVASISSDGNTYYADSVKGRFTISRDNAKNTVYLQMNSLKPEDTAVYYCAARYYYDWRFVGYDYWGQGTQVTVSS | low polyreactivity |
| QVQLVESGGGLVQAGCSLRLSCAASGNTFGYYAMGWYRQAPGKERELVAAITSSGGRTYYADSVKGRFTISRDNAKNTVYLQMNSLKPEDTAVYYCAAGRVGARYPTYRFYYWGQGTLVTVSS | high polyreactivity |
| QVQLVESGGGLVQAGGSRRLTCAGSGYIFRPYAKRWYRQAPGKERELVAVISSGGSTYYADSVKGRFTISRDNEKNTVYFQMNSLKPQDTAVYYCKRTLWSMGGTTYEYWGQGTQVTVSS | low polyreactivity |
| QVQLVESWGGLVQAGGSLRLSCAASVSTFYNYAMGWYRQAHGKERELVAAISKSGGSTYYADSVKGRFTISRDNAKNTVYLQMNSLNPEDTAVYYCAARGVYRTRSGMGYWGQGTQVTVSS | high polyreactivity |
| QVQLVESGGGLVQAGGSLRLSCAASGRTLYKYAMGLYRQAPGKERELFATISSGGRTNYADSVKGRFTISRDNSKNTVYLQMNSLKPEDTAVYYCAAQNRPRYYSGDYWGQGSQVTVSS | low polyreactivity |
| QVQLVESGGGLVQAGGSLRLSCAASGNTSGHNAMGWYRQAPGKERELVADIRTGDSTNYADSVKGRFTISRDNAKNTVYLQMNSLKPEDTAVYYCAADSAYDVTSYGYWGQGTQVTVSS | low polyreactivity |
| QVQLVESGGGLVQAGVSLRLSCAASASTFTKYAMGWYRQAPGKERELVAAITASGGNTYYADSVKGRFTISRDNAKNTVYLQMYSLKPEDTAVYYCATGYHRWSSWALDYWGQGTQVTVSS | high polyreactivity |
| QVQLVESGGGLVQAGGSLRLSCSASGFIFSRYVMGWYRKAPGKEREFVAVISYRGGSTYYADSVKGRFTFSRDNAKNTVYLQMNSLKPEDTAVYYCNADTIPDGEDRYDYWGQGTQVTVSS | low polyreactivity |
| QVQLVESGGGLVQAGGSLRLSCAASGSTFTSYAMGWYRQAPGKERELVAAISWRGGSTYYADSVKGRFTISRDNAKNTVYLQMNSLKPEDTAVYYCNAVVRQPHDLDYWGQGTQVTVSS | high polyreactivity |

| Sequence | polyreactivity (PSR sort gate) |
| --- | --- |
| QVQLVESGGRLVQAGGSLRLTCAASGNIFANNAMGWYRQAPGTERELVAAISQSGGNTYYEDSVKGRFTISRDNAKNTVYLQMNSLKPEDTAVYYCNAKTYGYNYDSWGQGTQVTVSS | low polyreactivity |
| QVQLVESGGGLVQAGGSLRISCSASGSIFTGYAMGWYRPAPGKERELVAAISNSGTSTYYADSVKGRFTISRDNANNTVYLQMNSLKPEDTAVYYCNTVGHRWLSDDDYWGQGTQVTVSS | low polyreactivity |
| QVQLVESGGCLVQAGGSLRLSCSASGSIFNYNDMGWYRQAPGKERELVAAIDSSGTSTYYADSVKGRYTISRDNSKNNVYLQMTSLKPEDTAVYYCNADSSLGFGYWGQGTQVTVSS | low polyreactivity |
| QVQLVESGGGLVQAGGSLRLSCAASGSTFPPYAMGWYRQAPGKERDLVADITRRGASTYYADSVKGRFTISRDNAKNTVYLQMNSLKPEDTAVYYCAARYYYQYYSGFDYWGQGTQVTVSS | high polyreactivity |
| QVQLVESGGGLVQAGGSLRLSCAASGIILRYYAMGWYRQAPGKERELVASITSSGGRTYYADSVKGRFRISRDNAKNTVYLQMNSLKPEDTAVDYCAAKWAVVSGYGYWGQGTQVTVSS | high polyreactivity |
| QVQLVESGGGLVQAGGSLRLSCAASGYIFSYNAMGWYRQAPGKERELVAAITASGGGTYYADSVKGRFTISRDNAKNTVYLQMNSLKPEDTAVYYCAADFNDHYYWYGQDYDYWGQGTQVTVSS | low polyreactivity |
| QVQLVESGGGLVQAGGRLRLSCAASGSIFDENTMGWYRQAPGKERELVAAITYSGTSTYYADTVKGRFTISRDNAKNTVYLQMNSLKPEDTAVYYCAAEQWRYDGSFTGYGYWGQGTQVTVSS | low polyreactivity |
| QVQLVESGGGLVQAGGSLRLSCAASGSIFRVYAMGWYRQAPGKERELVAAITNGGNTNYADSVKGRFTISRDNAKNTVYLQMNSLKPEDTAVYYCAADPLRTPGARHTPYKGTYDYWGQGTQVTVSS | high polyreactivity |
| QVQLVESGGGLVQAGGSLRLSCAASGRTFSRYAMGWYRQAPGKERELVAGISRSGTSTYYADSVKGRFTFSRDNAKNTVYLQMNSLKPEDTAVYYCAAYYEYRRDYWGQGTQVTVSS | high polyreactivity |
| QVQLVESGGGLVQAGGSLRLSCAASGSNFDLNAMGWYRQAPGKERELVAAISSGGGTYYADSVKGRFTISRDNAKTPVYLQMNSLKPEDTAVYYCNRVTRWTYNYWGQGTQVTVSS | high polyreactivity |
| QVQLVESGGGLVQAGGSLRLSCAASGSTFNYYAMGWYRQAPGKERELVAAITSSGTSTFYADSVKGRITISRDNAKNTVYLQMNSLKPEDTAVYYCAVDLYWSYFNGALGYRYYYWGQGTQVTVSS | high polyreactivity |
| QVQLVESGGGLVQAGGSLRLSGAASGRTFGSNDMGWYRQAHGKERELVAAISGRTDSTYYADSVKGRFTISRDIAKNTVYLQMNSLKPEDTAVYYCAADSADVLYYYIRYNYWGQGTQVTVSS | low polyreactivity |
| QVQLVESGGGLVQAGGSLRLSCAASGFTLWLNAMGWYRQAPGKERELVAAITTSDDGTYYADSVKGRFTISRDNAKKTVYLQMNSLKPEDTAVYYCAADYYSVLYDYWGQGTQVTVSS | low polyreactivity |
| QVQLVESGGGLVQAGGSLRLSCADSGSTSYRYAMGRYRQSPGKERELVAVITSGSSTYYADSVKGRFTISRDNAKNTDYLQINSLKPEDTAVYYCAVGRTYRRYSAASYNYWGQGTQVTVSS | high polyreactivity |
| QVQLVESGGGLVQAGGSLRLSCAASGRIFKPNAMGWYRQAPGKERELVASITSRGTSTYYADSVKGRFTISRDNAKNTVYLQMNSLKPEDTAVYYCAARPIHYPPYYYWGQGTQVTVSS | high polyreactivity |
| QVQLVESGGGLVQAGGSLRLSCAASGRTFRAYAMGWYRQAPGKERELVAAITSGGSTKYADSVKGRFTITRDNAKNTVYLLMNSLKPEDTAVYYCAAVWYGYYSFDTYGYWGQGTQVTVSS | high polyreactivity |
| QVQLVESGGGLVQAGGSLRLSCAASGSTFAGNEMGWYRQAPGKERELVAAITFSGGRTDYADSVKGRFTISRDNAKNTVYFQINCLKPEDTAVYDCAAPADDTVHYQNYYWGQGTQVSVSS | low polyreactivity |
| QVQLVESGGRLVQAGGSLRLSCAASGSNLLWNTMGWYRQAPGKERELVAGITSGGNTYYADSVKGRFTISRDNAKNTVYLKMNSLKPEDTAVYYCSYYYWGQGTQVTVSS | low polyreactivity |
| QVQLVESGGGLVQAGGSLRLSCAASGSTFKVNAMGWYRQAPGKERELVAAISRGGSTYADSVKGRFTISRDNAKNTVYLQMNSLKPEDTAVYYCAAKSRYFQPDEYYYWGQVTQVTVSS | high polyreactivity |
| QVQLVESGGGLVQAGGSLRLSCAASGSIFIGYAMGWYRQAPGKERELVAAISNSGGRTYYADSVKGRFTISRDNAKNTVYLQMNSLKPEDTAVYYCNVAYRIPYRMDYWGQGTQVTVSS | high polyreactivity |
| QVQLVESVGGLVQAGGTHRLSCSASGSTFFYYAMGWYRQAPGKERELVAAISSSGGRTYYADSVKGRFTISRDTAKNTVYLQMNSLKPEDTAVYYCAARDYRQSRYEYWGQGTEVTVSS | high polyreactivity |
